From publication PMC12439037 (RSC Chemical Biology, 2025)
Positions count from the first letter of the chain named. Ends that are not written are not given here. * marks the point of attachment. Myristoyl = CCCCCCCCCCCCCC(=O)*

Key:
Experiment in all cases: crystal structure
[1] = molecular target: T1, SIRT2^H187A (human SIRT2 residues 50–356, H187A) (human, UniProt Q8IXJ6 50-356, H187A)
T1 sequence (looked up): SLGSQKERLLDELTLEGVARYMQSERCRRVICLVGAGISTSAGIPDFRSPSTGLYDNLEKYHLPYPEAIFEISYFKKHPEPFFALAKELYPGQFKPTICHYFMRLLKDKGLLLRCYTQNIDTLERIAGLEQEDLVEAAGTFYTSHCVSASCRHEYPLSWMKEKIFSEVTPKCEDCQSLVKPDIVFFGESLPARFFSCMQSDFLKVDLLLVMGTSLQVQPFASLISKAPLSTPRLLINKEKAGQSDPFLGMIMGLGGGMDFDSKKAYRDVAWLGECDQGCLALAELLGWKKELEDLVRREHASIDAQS

[2] = molecular target: T2, human SIRT2 (residues 50–356) (human, UniProt Q8IXJ6 50-356)
T2 sequence (looked up): T1 sequence (looked up) with A138H

[3] = molecular target: T3, SIRT2^F96A (human SIRT2 residues 50–356, F96A) (human, UniProt Q8IXJ6 50-356, F96A)
T3 sequence (looked up): T1 sequence (looked up) with F47A, A138H

binding result [1]: binds | binding result [2]: binds | binding result [3]: binds
B1: H3K18myr peptide (APRKmyrQLA) (peptide)
peptide: APRK(Myristoyl)QLA
